This is an account of results in patent US20050196403A1 (published 2005).

The target in one assay is HLA-A*0203 (Human). Kind of assay: competition vs 125I probe, purified HLA.
Assay [1] deals with HLA-B*0702 (Human).
Assay [2] concerns the target HLA-B*0702 (Human). Briefly: competition vs 125I probe, purified HLA.
The next assay addresses HLA-B*5101 (Human). Briefly: competition vs 125I probe, purified HLA.
In a further assay the target is HLA-A*0101 (human). Briefly: competition with 125I probe peptide, purified HLA class I.
Another assay deals with HLA-A*1101 (human). Described as above.
Another assay concerns the target HLA-A*6801 (human). The description is as above.
The target of assay [3] is HLA-A*0206 (Human). Briefly: competition vs 125I probe, purified HLA.
A further assay addresses HLA-B*3501 (Human). Kind of assay: competition vs 125I probe, purified HLA.
In another assay the target is HLA-B*5301 (Human). Kind of assay: competition vs 125I probe, purified HLA.
In a further assay the target is HLA-A*0301 (human). Kind of assay: competition with 125I probe peptide, purified HLA class I.
A further assay deals with HLA-A*3101 (human). The description is as above.
The target of assay [4] is HLA-A*0206 (human). Described as above.
Another assay concerns the target HLA-B*5401 (Human). Kind of assay: competition vs 125I probe, purified HLA.
The next assay addresses HLA-A*0201 (human). Kind of assay: competition with 125I probe peptide, purified HLA class I.

Values joined by “and” are separate entries in the source; they are usually repeats but may differ in a detail not shown here. Equal values may be shown once. Non-standard residues stand in square brackets, D forms with d. No end group written: not given here. Abu = CC[C@H](N)C(=O)O

HLIRVEGNLRV [p53.193 HLIRVEGNLRV]: the concentration for half-maximal inhibition (IC50) with HLA-A*0203 was determined as 83 nM.

As for LPSQAMDDL [p53 peptide LPSQAMDDL (position 35, 9 amino acids)], the “binding affinity ratio (IC50 of standard peptide / IC50 of test peptide)” value in the assay with HLA-B*0702 [1] was 0.0038 ratio.

For the molecule FPGTRVRAI [48.0123 FPGTRVRAI (p53.152.F1)], the values for the IC50 with HLA-B*0702 [2] and with HLA-B*5101 were 1.1 nM and 663 nM, respectively.

As to KPLDGEYFTL [p53 peptide KPLDGEYFTL (position 321, 10 amino acids)], the “binding affinity ratio (IC50 of standard peptide / IC50 of test peptide)” value in the assay with HLA-B*0702 [1] is 0.0055 ratio.

Molecule GTDKSVTCTY [57.0126 GTDKSVTCTY p53.117.D3] registered an IC50 with HLA-A*0101 of 42.4 nM.

RV[Abu]A[Abu]PGRDRK [1371.31 RVBABPGRDRK p53.273.B3B5K11]: the results for the IC50 with HLA-A*1101 and with HLA-A*6801 were 200 nM and 2500 nM, respectively.

FPQPKKKPI [48.0127 FPQPKKKPI (p53)]: the IC50 in the assay with HLA-B*0702 [2] was 0.61 nM.

On to FPQPKKKPL [48.0128 FPQPKKKPL (p53)], for which the IC50 with HLA-B*0702 [2] is 2.3 nM.

Take FPPGSTKRAL [48.0196 FPPGSTKRAL (p53)]: the results for the IC50 in the assay with HLA-B*0702 [2] and in the assay with HLA-B*5101 were 0.79 nM and 6110 nM, respectively.

For the molecule CTTIHYNYM [p53.229 CTTIHYNYM], the IC50 with HLA-A*0206 [3] turned out to be 561 nM.

Regarding FPALNKMF [48.0055 FPALNKMF (p53.127.F1)], the results for the IC50 in the assay with HLA-B*0702 [2], with HLA-B*3501 and with HLA-B*5301 were 0.025 nM, 3000 nM and 6200 nM, respectively.

Turning to KVF[Abu]QLAK [1371.18 KVFBQLAK p53.132.V2B4], the IC50 in the assay with HLA-A*0301 turned out to be 846 nM; in the assay with HLA-A*3101, 7500 nM.

For LPENNVLSPL [p53 peptide LPENNVLSPL (position 26, 10 amino acids)], in the assay with HLA-B*0702 [1], the “binding affinity ratio (IC50 of standard peptide / IC50 of test peptide)” value is 0.007 ratio.

On to SPLPSQAM [p53 peptide SPLPSQAM (position 33, 8 amino acids)], for which the “binding affinity ratio (IC50 of standard peptide / IC50 of test peptide)” value in the assay with HLA-B*0702 [1] turned out to be 0.0044 ratio.

In the assay with HLA-A*0206 [4], CTTIHYNYM [1329.04 CTTIHYNYM p53.229] showed an IC50 of 561 nM.

MPEAAPPV [p53 peptide MPEAAPPV (position 66, 8 amino acids)]: in the assay with HLA-B*0702 [1], the “binding affinity ratio (IC50 of standard peptide / IC50 of test peptide)” value came out at 0.0028 ratio.

For TPAAPAPA [p53 peptide TPAAPAPA (position 81, 8 amino acids)], the “binding affinity ratio (IC50 of standard peptide / IC50 of test peptide)” value with HLA-B*0702 [1] stood at 0.0041 ratio.

For the molecule FPALNKMFCQL [48.0234 FPALNKMFCQL (p53.127.F1)], the IC50 with HLA-B*5401 is 500 nM; with HLA-B*0702 [2], 0.052 nM; with HLA-B*5101 it was 5500 nM.

Take BVYSPALNR (B at position 1 is alpha-amino butyric acid (in place of cysteine)) [1371.17 BVYSPALNR p53.124.B1V2R9]: the IC50 is 25 nM with HLA-A*0301, 8.3 nM with HLA-A*1101 and 14.8 nM in the assay with HLA-A*6801.

For the molecule LLGRDSFEV [LLGRDSFEV mp53.261], the IC50 with HLA-A*0201 is 41.7 nM and 27.8 nM.

Regarding SV[Abu]MGGMNRR [1371.27 SVBMGGMNRR p53.240.V2B3], the IC50 with HLA-A*0301 was found to be 1000 nM; with HLA-A*1101 it was 25 nM; with HLA-A*3101, 621 nM; in the assay with HLA-A*6801, 11.4 nM.

By IC50 is commonly meant the concentration that gives 50% inhibition. A low value points to greater potency.
